Where no end group is shown, it is not given here. The star is where a group is joined. MTSL = 1-oxy-2,2,5,5-tetramethyl-D-pyrroline-3-methyl methanethiosulfonate spin label, CC1(C)C=C(CS*)C(C)(C)N1[O]
B1: MCG-TatA (wild-type E. coli TatA extended at the N-terminus by Met-Cys-Gly) (natural protein, Escherichia coli)
chain: MCGMGGISIWQLLIIAVIVVLLFGTKKLGSIGSDLGASIKGFKKAMSDDEPKQDKTSQDADFTAKTIADKQADTNQEQAKTEDAKRHDKEQV
notes: three additional amino acids Met-Cys-Gly at the N-terminus, numbered M(-3)C(-2)G(-1); TatA, Escherichia coli, wild type, 89 amino acids, Met1 kept after the extension; The single chain of the disulphide-linked dimer d-MCG-TatA; It is used here for the subunit-to-subunit rows of the dimer structure and of the cross-link; source: in C12E9 with Superdex 200 gel filtration for blue-native PAGE; …
B2: Escherichia coli TatA, wild type, full length (natural protein, UniProt P69428 1-89, looked up)
chain: MGGISIWQLLIIAVIVVLLFGTKKLGSIGSDLGASIKGFKKAMSDDEPKQDKTSQDADFTAKTIADKQADTNQEQAKTEDAKRHDKEQV
notes: TatA, Escherichia coli, 89 amino acids, one transmembrane helix (Ile6-Phe20) and one amphipathic helix (Lys24-Met43); 15N- or 13C/15N-labelled for NMR; also called wt-TatA; wild-type TatA; source: in C12E9 with Superdex 200 gel filtration for blue-native PAGE
B3: TatA_(1–55), truncated E. coli TatA (residues Met1-Gln55) (domain or fragment, Escherichia coli, UniProt P69428 1-55, looked up)
chain: MGGISIWQLLIIAVIVVLLFGTKKLGSIGSDLGASIKGFKKAMSDDEPKQDKTSQ
notes: TatA, Escherichia coli, residues Met1-Gln55; the unstructured C-terminal region removed; 15N-labelled in the relaxation and PRE experiments; source: purified in DPC
B4: TatA_(1–55)-I12C-MTSL (domain or fragment, Escherichia coli, UniProt P69428 1-55, looked up)
chain: MGGISIWQLLIC(MTSL)AVIVVLLFGTKKLGSIGSDLGASIKGFKKAMSDDEPKQDKTSQ
notes: TatA, Escherichia coli, residues Met1-Gln55 with Ile12 mutated to cysteine; source: purified in DPC, unlabeled, tagged with MTSL
B5: TatA_(1–55)-I11C-MTSL (domain or fragment, Escherichia coli, UniProt P69428 1-55, looked up)
chain: MGGISIWQLLC(MTSL)IAVIVVLLFGTKKLGSIGSDLGASIKGFKKAMSDDEPKQDKTSQ
notes: TatA, Escherichia coli, residues Met1-Gln55 with Ile11 mutated to cysteine; source: purified in DPC, unlabeled, tagged with MTSL

What was measured:
[1] = target: the molecule itself; assay: solution NMR structure (intermolecular NOEs); disulphide-linked d-MCG-TatA of mixed unlabeled and 13C/15N-labeled MCG-TatA (2:1) in dDPC micelles, DPR about 80, 35°C; 13C/15N-filtered NOESY; 139 inter-subunit NOE restraints; Xplor-NIH
[2] = target: the molecule itself; assay: NMR 1H-15N HSQC at decreasing detergent-to-protein ratio; full-length TatA in DPC micelles, 50 mM sodium phosphate pH 7.0, 35°C; DPR lowered from >200; new sets of cross peaks appear
[3] = target: the molecule itself; assay: NMR backbone 15N relaxation (R2/R1); TatA_(1–55) in DPC micelles, DPR ~70, two sets of peaks in the HSQC, 800 MHz, 35°C; monomer to dimer
[4] = target: B3; assay: NMR intermolecular paramagnetic relaxation enhancement (PRE); unlabeled MTSL-tagged TatA_(1–55) cysteine mutant mixed at equal molar ratio with 15N-labeled TatA_(1–55) in DPC, 50 mM sodium phosphate pH 7.0, final DPR 40; reference spectrum after reduction with ascorbic acid; conditions: both partners purified

B1: binds [1].

B2: binds [2].

With B3 the “stoichiometry N” value [3] was 2.

For B4, the “stoichiometry N” value [4] was 2.

B5: binds [4].

Reference: article PMC4121141, “Structural Basis for TatA Oligomerization: An NMR Study of Escherichia coli TatA Dimeric Structure” (PLoS ONE, 2014)
